# Test results published in patent US20210388087A1 (Chugai, published 2021).
# Where a chain is given by its changes, count along the chain named. Names and notes keep the numbering of the source.
# B1: H183/L072 VL T97K (antibody, name in Kabat numbering, V domains shown)
# VH: QVQLVESGGGLVQPGRSLRLSCAASGFTFSNAWMHWVRQAPGKGLEWVAQIKDKGNAYAAYYAPSVKGRFTISRDDSKNSIYLQMNSLKTEDTAVYYCHYVHYASASTVLPAFGVDAWGQGTTVTVSS
# VL: DIVMTQSPLSLPVTPGEPASISCQASQELVHMNRNTYLHWYQQKPGQAPRLLIYKVSNRFPGVPDRFSGSGSGTDFTLKISRVEAEDVGVYYCAQGTSVPFKFGQGTKLEIK
# B2: H183/L072 VL V27cD (antibody, name in Kabat numbering, V domains shown)
# VH: B1 VH
# VL: B1 VL with V30D, K102T
# B3: H183/L072 VL V51T (antibody, name in Kabat numbering, V domains shown)
# VH: B1 VH
# VL: B1 VL with V56T, K102T
# B4: H183/L072 VL V27cF (antibody, name in Kabat numbering, V domains shown)
# VH: B1 VH
# VL: B1 VL with V30F, K102T
# B5: H183/L072 VL V51E (antibody, name in Kabat numbering, V domains shown)
# VH: B1 VH
# VL: B1 VL with V56E, K102T
# B6: H183/L072 VL V27cM (antibody, name in Kabat numbering, V domains shown)
# VH: B1 VH
# VL: B1 VL with V30M, K102T
# B7: H183/L072 VL V27cL (antibody, name in Kabat numbering, V domains shown)
# VH: B1 VH
# VL: B1 VL with V30L, K102T
# B8: H183/L072 VL V51H (antibody, name in Kabat numbering, V domains shown)
# VH: B1 VH
# VL: B1 VL with V56H, K102T
# B9: H183/L072 VL T97Q (antibody, name in Kabat numbering, V domains shown)
# VH: B1 VH
# VL: B1 VL with K102Q
# B10: H183/L072 VL V51M (antibody, name in Kabat numbering, V domains shown)
# VH: B1 VH
# VL: B1 VL with V56M, K102T
# B11: H183/L072 VL V27cA (antibody, name in Kabat numbering, V domains shown)
# VH: B1 VH
# VL: B1 VL with V30A, K102T
# B12: H183/L072 VL T97S (antibody, name in Kabat numbering, V domains shown)
# VH: B1 VH
# VL: B1 VL with K102S
# B13: H183/L072 VL V27cY (antibody, name in Kabat numbering, V domains shown)
# VH: B1 VH
# VL: B1 VL with V30Y, K102T
# B14: H183/L072 VL V51A (antibody, name in Kabat numbering, V domains shown)
# VH: B1 VH
# VL: B1 VL with V56A, K102T
# B15: H183/L072 VL V51G (antibody, name in Kabat numbering, V domains shown)
# VH: B1 VH
# VL: B1 VL with V56G, K102T
# B16: H183/L072 VL V94E (antibody, name in Kabat numbering, V domains shown)
# VH: B1 VH
# VL: B1 VL with V99E, K102T
# B17: H183/L072 VL V51S (antibody, name in Kabat numbering, V domains shown)
# VH: B1 VH
# VL: B1 VL with V56S, K102T
# B18: H183/L072 VL T97M (antibody, name in Kabat numbering, V domains shown)
# VH: B1 VH
# VL: B1 VL with K102M
# B19: H183/L072 VL V27cN (antibody, name in Kabat numbering, V domains shown)
# VH: B1 VH
# VL: B1 VL with V30N, K102T
# B20: H183/L072 VL V94A (antibody, name in Kabat numbering, V domains shown)
# VH: B1 VH
# VL: B1 VL with V99A, K102T
# B21: H183/L072 VL V27cW (antibody, name in Kabat numbering, V domains shown)
# VH: B1 VH
# VL: B1 VL with V30W, K102T
# B22: H183/L072 VL V27cT (antibody, name in Kabat numbering, V domains shown)
# VH: B1 VH
# VL: B1 VL with V30T, K102T
# B23: H183/L072 VL T97N (antibody, name in Kabat numbering, V domains shown)
# VH: B1 VH
# VL: B1 VL with K102N
# B24: H183/L072 VL V27cI (antibody, name in Kabat numbering, V domains shown)
# VH: B1 VH
# VL: B1 VL with V30I, K102T
# B25: H183/L072 VL V94H (antibody, name in Kabat numbering, V domains shown)
# VH: B1 VH
# VL: B1 VL with V99H, K102T
# B26: H183/L072 VL V27cQ (antibody, name in Kabat numbering, V domains shown)
# VH: B1 VH
# VL: B1 VL with V30Q, K102T
# B27: H183/L072 VL V51I (antibody, name in Kabat numbering, V domains shown)
# VH: B1 VH
# VL: B1 VL with V56I, K102T
# B28: H183/L072 VL V51L (antibody, name in Kabat numbering, V domains shown)
# VH: B1 VH
# VL: B1 VL with V56L, K102T
# B29: H183/L072 VL V51D (antibody, name in Kabat numbering, V domains shown)
# VH: B1 VH
# VL: B1 VL with V56D, K102T
# B30: H183/L072 VL T97V (antibody, name in Kabat numbering, V domains shown)
# VH: B1 VH
# VL: B1 VL with K102V
# B31: H183/L072 VL V27cS (antibody, name in Kabat numbering, V domains shown)
# VH: B1 VH
# VL: B1 VL with V30S, K102T
# B32: H183/L072 VL V27cH (antibody, name in Kabat numbering, V domains shown)
# VH: B1 VH
# VL: B1 VL with V30H, K102T
# B33: H183/L072 VL T97R (antibody, name in Kabat numbering, V domains shown)
# VH: B1 VH
# VL: B1 VL with K102R
# B34: H183/L072 VL V94F (antibody, name in Kabat numbering, V domains shown)
# VH: B1 VH
# VL: B1 VL with V99F, K102T
# B35: H183/L072 VL V27cR (antibody, name in Kabat numbering, V domains shown)
# VH: B1 VH
# VL: B1 VL with V30R, K102T
# B36: H183/L072 VL V51R (antibody, name in Kabat numbering, V domains shown)
# VH: B1 VH
# VL: B1 VL with V56R, K102T
# B37: H183/L072 VL V94D (antibody, name in Kabat numbering, V domains shown)
# VH: B1 VH
# VL: B1 VL with V99D, K102T
# B38: H183/L072 VL V27cE (antibody, name in Kabat numbering, V domains shown)
# VH: B1 VH
# VL: B1 VL with V30E, K102T
# B39: H183/L072 VL V27cK (antibody, name in Kabat numbering, V domains shown)
# VH: B1 VH
# VL: B1 VL with V30K, K102T
# B40: H183/L072 VL V51K (antibody, name in Kabat numbering, V domains shown)
# VH: B1 VH
# VL: B1 VL with V56K, K102T
# B41: H183/L072 VL T97L (antibody, name in Kabat numbering, V domains shown)
# VH: B1 VH
# VL: B1 VL with K102L
# B42: H183/L072 VL V51Q (antibody, name in Kabat numbering, V domains shown)
# VH: B1 VH
# VL: B1 VL with V56Q, K102T
# Target: T1, Human CD3eg linker (human)
# T1 construct: Single-chain construct; also called recombinant human CD3
# T1 chain: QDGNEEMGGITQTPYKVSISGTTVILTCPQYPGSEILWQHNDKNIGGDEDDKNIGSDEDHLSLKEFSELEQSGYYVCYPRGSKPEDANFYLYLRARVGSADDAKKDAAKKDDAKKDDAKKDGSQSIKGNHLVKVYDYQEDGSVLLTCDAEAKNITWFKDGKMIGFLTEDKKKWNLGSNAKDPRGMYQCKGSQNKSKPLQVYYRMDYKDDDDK
# Assay: SPR; fold vs parent H183/L072
row,Binder,fold change of affinity [fold]
1,B1,0.6
2,B2,0.1
3,B3,0.2
4,B4,0.5
5,B5,0.4
6,B6,1.1
7,B7,0.8
8,B8,0.2
9,B9,0.5
10,B10,0.5
11,B11,0.4
12,B12,1.1
13,B13,0.5
14,B14,0.6
15,B15,0.4
16,B16,0.4
17,B17,0.3
18,B18,0.7
19,B19,0.3
20,B20,1
21,B21,0.3

row,Binder,fold change of affinity [fold]
1,B22,0.8
2,B23,0.5
3,B24,1
4,B25,0.8
5,B26,1
6,B27,1.4
7,B28,0.6
8,B29,0
9,B30,0.6
10,B31,0
11,B32,0.3
12,B33,0.4
13,B34,0.2
14,B35,1.2
15,B36,0.9
16,B37,0.5
17,B38,0.7
18,B39,1.1
19,B40,0.8
20,B41,0.4
21,B42,0.5
